Test results published in patent US20240013853A1 (University of Washington, published 2024).

Columns and labels:
[1] = target: the molecule itself; test: X-ray crystal structure; self-association of protomers
Description: (§1) 19 designs were chosen to undergo crystallization screens. Each design was expressed as described above in 0.5 L cultures. […] Following SEC, 2 mM of NiCl₂ was added and the solution was incubated overnight at 37° C. Following cleavage, the solutions containing the cleaved protein products were incubated with 1 mL Ni-NTA resin to bind any uncleaved product, and the flow through was collected. Following SEC into Crystallization buffer (20 mM Tris, 50 mM NaCl, pH 8.0), each sample was concentrated to approximately 15 mg mL⁻¹. The following sitting drop broad screens were set up at room temperature with three protein:crystallization condition ratios (1:1, 1:2, 2:1) using the mosquito pipetting instrument (sptlabtech): Midas™ (Molecular Dimensions), Proplex™ (Molecular Dimensions), JCSG+™ (Molecular Dimensions), Morpheus™ (Molecular Dimensions), Pact Premier™ (Molecular Dimensions), LMB™ (Molecular Dimensions), Index™ (Hampton Research) and PGA™ (Molecular Dimensions). Each was monitored weekly for crystal growth using the JANSi UVEX imaging system.
Where required, crystals were cryoprotected with 20% glycerol or 25% ethylene glycol prior to flash freezing in liquid nitrogen. Data collection was done using the Advanced Photon Source synchrotron. Images were integrated using XDS 20220110 (37). Aimless (38) was used for scaling and merging. Phaser™ 2.8 (39) was used for molecular replacement using the design models as search models (either monomer or oligomeric complex). Models were built using Coot 0.9.8 (40) and refined with Phenix ™ refine from Phenix™ 1.20 (41) and RefMac™ (42) from CCP4 7.1 (38) suite. All structures were validated using MolProbity™ 4.5.1(43).

[2] = target: the molecule itself; test: negative stain EM, 2D class averages and 3D maps; self-association of protomers (pentamer)
Description: (§2) Next, we selected three designs: one C15 homo-pentamer (HALC5-15_262), one C18 homo-hexamer (HALC6-18_265) and one C33 homo-trimer (HALC3-33_343) for high-resolution single particle cryoEM characterization.
(§3) SEC fractions corresponding to the designs were concentrated in TBS prior to negative stain EM screening. Samples were then immediately diluted 5 to 150 times in TBS buffer (25 mM Tris, 100 mM NaCl, pH 8.0) depending on the concentration of the samples. A final volume of 5 μL was applied on negatively glow discharged, carbon-coated 400-mesh copper grids (01844-F, TedPella Inc.), then washed with Milli-Q Water and stained using 0.75% uranyl formate as previously described (44). Air-dried grids were then imaged on either a FEI Talos™ L120C TEM (FEI Thermo Scientific) equipped with a 4K×4K Gatan OneView™ camera at a magnification of 57,000× and pixel size of 2.5 Å. Micrographs collection was automated using EPU™ software (FEI Thermo Scientific) and were imported into CisTEM™ software (45) or cryoSPARC™ software (46, 47). CTF estimation was done with CTFFIND4 and a circular blob picker was used to select particles which were then subjected to 2D classification. Ab initio reconstruction and homogeneous refinement in Cn symmetry were used to generate 3D electron density maps. All EM maps can be found in supplementary data.

[3] = target: the molecule itself; test: negative stain EM, 2D class averages and 3D maps; self-association of protomers (hexamer)
Description: as §2, §3

[4] = target: the molecule itself; test: X-ray crystallography; self-association of protomers (homo-dimer)
Description: as §1
Where required, crystals were cryoprotected with 20% glycerol or 25% ethylene glycol prior to flash freezing in liquid nitrogen. Data collection was done using the Advanced Photon Source synchrotron. Images were integrated using XDS 20220110 (37). Aimless (38) was used for scaling and merging. […]

[5] = target: the molecule itself; test: single particle cryoEM; self-association of protomers
Description: The designs were relaxed into experimental cryoEM electron densities using Rosetta FastRelax and SetupForDensityScoring.
For some samples, multiple blots were applied in order to obtain the best particle density. All grids were blotted using a blot force of 0 and 5.5 second blot time at 100% humidity and 4° C. and plunge-frozen in liquid ethane using a Vitrobot™ Mark IV (FEI Thermo Scientific). All cryoEM grids were screened on a Glacios™ transmission electron microscope (FEI Thermo Scientific) operated at 200 kV and equipped with a Gatan K2 or K3 Summit direct detector. […] Movies were acquired in counting mode fractionated in 50 frames of 200 ms at 8.5 e-/pixel/sec for a total dose of ˜65e-/Å².

[6] = target: the molecule itself; test: negative stain EM, 2D class averages and 3D maps; self-association of protomers (heptamer)
Description: as §2, §3

B1: HALC4_135 (other)
chain: MEKFKEQLLEEVKKIVLETMTKVMEHLEKWFVTLAEIIITKSEEKLEELKETMEKSIEELRKEAE
notes: De novo designed protomer; pair is protomer with identical protomer (C4 homo-tetramer)
- binding result [1]: binds

B2: HALC25-5_341 (other)
chain: EGAAIAENLATAYQGIGETLPSLQDLRVLHLSVIFSAEGSSPEGAAIAENLATAYQGIGETLPSLQDLRVLHLSVIFSAEGSSPEGAAIAENLATAYQGIGETLPSLQDLRVLHLSVIFSAEGSSPEGAAIAENLATAYQGIGETLPSLQDLRVLHLSVIFSAEGSSPEGAAIAENLATAYQGIGETLPSLQDLRVLHLSVIFSAEGSSP
notes: De novo designed protomer; pair is protomer with identical protomer (C25 internal symmetry, homo-pentamer); not shown: C-terminal His tag
- binding result [2]: binds

B3: HALC6_220 (other)
chain: PPIPPPSFKLEISPAFLELVQLVIDLHPNDEEVRKELIENLISRIGKSDNVPPETISLDISEAALELFEWIFEKFPDDEDVHRRLIESFINKRKFSSSSPLDTPSLDISERFIELVKYILEKYPEDEEIKQKLIDSLLNLLGSY
notes: De novo designed protomer; pair is protomer with identical protomer (C6 homo-hexamer); not shown: C-terminal His tag
- binding result [3]: binds

B4: HALC2_062 (other)
chain: MARVEYSYEKLNDTHYKLKLKVTYEYRKSPEARRLAEDLVQAFVDALSSLPFITVEYEVEEVEVE
notes: De novo designed protomer; the entry is one protomer and the pair is protomer with identical protomer (C2 homo-dimer)
- binding result [4]: binds

B5: HALC33-3_343 (other)
chain: PSNWPEVAKYFDLGKALKPIGEGLQNLKNLKHLDLSFSFSLELYPGLPSNWPEVAKYFDLGKALKPIGEGLQNLKNLKHLDLSFSFSLELYPGLPSNWPEVAKYFDLGKALKPIGEGLQNLKNLKHLDLSFSFSLELYPGLPSNWPEVAKYFDLGKALKPIGEGLQNLKNLKHLDLSFSFSLELYPGLPSNWPEVAKYFDLGKALKPIGEGLQNLKNLKHLDLSFSFSLELYPGLPSNWPEVAKYFDLGKALKPIGEGLQNLKNLKHLDLSFSFSLELYPGLPSNWPEVAKYFDLGKALKPIGEGLQNLKNLKHLDLSFSFSLELYPGLPSNWPEVAKYFDLGKALKPIGEGLQNLKNLKHLDLSFSFSLELYPGLPSNWPEVAKYFDLGKALKPIGEGLQNLKNLKHLDLSFSFSLELYPGLPSNWPEVAKYFDLGKALKPIGEGLQNLKNLKHLDLSFSFSLELYPGLPSNWPEVAKYFDLGKALKPIGEGLQNLKNLKHLDLSFSFSLELYPGL
notes: De novo designed protomer; pair is protomer with identical protomer (C33 internal symmetry, homo-trimer); not shown: C-terminal His tag
- binding result [5]: binds

B6: HALC3_109 (other)
chain: REEIEEAVKEAELKVLAIVLVALRSVSHYEPLSRLYESFLDALKKALSEEELKEVEKEAERIEKK
notes: De novo designed protomer; pair is protomer with identical protomer (C3 homo-trimer)
- binding result [1]: binds

B7: HALC3_104 (other)
chain: KRIDEIESKLKHLEEFTTHLIKLMETMLELLKLVSDGKSDSEEYKELLEKAEEYLKQATEAAKKI
notes: as for B6
- binding result [1]: binds

B8: HALC24-6_316 (other)
chain: SKEKLGIQQDLFEGIIATLLSHKDPRVLYLMVTILKLTGSSPSKEKLGIQQDLFEGIIATLLSHKDPRVLYLMVTILKLTGSSPSKEKLGIQQDLFEGIIATLLSHKDPRVLYLMVTILKLTGSSPSKEKLGIQQDLFEGIIATLLSHKDPRVLYLMVTILKLTGSSP
notes: De novo designed protomer; pair is protomer with identical protomer (C24 internal symmetry, homo-hexamer); not shown: C-terminal His tag
- binding result [3]: binds

B9: HALC42-7_351 (other)
chain: PSLTLNDFGDLGKGLGEGLQGMENLEKLQLTITLKLTVSTPSLTLNDFGDLGKGLGEGLQGMENLEKLQLTITLKLTVSTPSLTLNDFGDLGKGLGEGLQGMENLEKLQLTITLKLTVSTPSLTLNDFGDLGKGLGEGLQGMENLEKLQLTITLKLTVSTPSLTLNDFGDLGKGLGEGLQGMENLEKLQLTITLKLTVSTPSLTLNDFGDLGKGLGEGLQGMENLEKLQLTITLKLTVST
notes: De novo designed protomer; pair is protomer with identical protomer (C42 internal symmetry, homo-heptamer); not shown: C-terminal His tag
- binding result [6]: binds

B10: HALC20-5_308 (other)
chain: SLGWKVLLHLDLTWYPGADYTIDHDDMTRAARALAHGFERAAHSFAEAIGSTGSLGWKVLLHLDLTWYPGADYTIDHDDMTRAARALAHGFERAAHSFAEAIGSTGSLGWKVLLHLDLTWYPGADYTIDHDDMTRAARALAHGFERAAHSFAEAIGSTGSLGWKVLLHLDLTWYPGADYTIDHDDMTRAARALAHGFERAAHSFAEAIGSTG
notes: De novo designed protomer; pair is protomer with identical protomer (C20 internal symmetry, homo-pentamer); not shown: C-terminal His tag
- binding result [2]: binds

B11: HALC15-5_262 (other)
chain: DVPLTDPKNLNEFLYALGEGLKGMKNLKKLTLTFPSNPLTIPGDISEGFRELGEGLKGMKNLEELTVTFNDVPLTDPKNLNEFLYALGEGLKGMKNLKKLTLTFPSNPLTIPGDISEGFRELGEGLKGMKNLEELTVTFNDVPLTDPKNLNEFLYALGEGLKGMKNLKKLTLTFPSNPLTIPGDISEGFRELGEGLKGMKNLEELTVTFN
notes: De novo designed protomer; pair is protomer with identical protomer (C15 internal symmetry, homo-pentamer); also called HALC5-15_262; HALC5-15 262; not shown: C-terminal His tag
- binding result [5]: binds

B12: HALC2_068 (other)
chain: MIKVPEDLERIGRELRARGLDTKRLLEEGPKLYPELSIPDLMAIALYDHLNLDPEFLYRLLQQSR
notes: De novo designed protomer; pair is protomer with identical protomer (C2 homo-dimer)
- binding result [1]: binds
